# Results published in a protein production outcome set (Wang et al. 2014).
# Assay: label from the status in PepcDB records
row,Sequence,protein production
1,MKKGFVSIIIPSYNEASNIKLIYESLRNEFQSIDYDYEIYYINDGSTDRTLEEIKKLAEKSEHVKYISFSRNFGKEAAILAGFQHARGDAVVVMDADLQHPTYLLHDFIKGYEEGYDQVVAQRNRKGDNPVRSYLSSLYYRFINNAVEVDLRDGVGDFRLLSRKAVNAMLKLSEGNRFSKGLFCWIGFDQKIVYYENVERKNGKSKWSFRHLLNYGIDGIVSFNNRPLRMCFYAGIFILFLSLIYIAATFIRILKYGVIVPGYFTIISAVLFLGGVQLLSLGIIGEYIGRIYYETKKRPHYLIQEANIAHGETHENRES,failed
2,MKKGRGYVYKLEYHLIWATKYRHQVLVDEVADGLKDILRDIATQNGLELVALEVMPDYVHLLLGATPQHVIPDFVKALKGASARRMFSAFPHLKQPHWGGNLWNPSYCVLTVSEHTRAQIQQYIENQHAAE,not failed
3,MKKIAFGCDHVGFILKHEIVAHLVERGVEVIDKGTWSSERTDYPHYASQVALAVAGGEVDGGILICGTGVGISIAANKFAGIRAVVCSEPYSAQLSRQHNDTNVLAFGSRVVGLELAKMIVDAWLGAQYEGGRHQQRVEAITAIEQRRN,not failed
4,MKKIAIFGSAFNPPSLGHKSVIESLSHFDLVLLEPSIAHAWGKNMLDYPIRCKLVDAFIKDMGLSNVQRSDLEQALYQPGQSVTTYALLEKIQEIYPTADITFVIGPDNFFKFAKFYKAEEITERWTVMACPEKVKIRSTDIRNALIEGKDISTYTTPTVSELLLNEGLYR,not failed
5,MKKIAVFADVQNLYYTVRQAYGCHFNYAALWADISKRGEIVHAFAYAIDRGDSKQQQFQQILRNLGFTVRLKPYIQRSDGSAKGEWDVGITIDIMDFAPQVDEVVLASGDGDFDMLLDRVISKHGVEAVAYGVPGLTANSLIRAASRYVPIEGALLLK,not failed
6,MKKIAVTYGEEKYSYADIIKYVNYYSEFLDISKGDRVALMMENRPESIFSFFSIWAKKGIALSLDAGYTVEQLAFVLNDSKPKYIFVSNKIKEVVEKANEQVGNIVKIMVVDEITLPTDYVIKQEEYENDSNEDLAVIVYTSGTTGNPKGVMITYELEHHHHHH,not failed
7,MKKILCAVLLLFTGASWANSDDLETSGDVVHLLLPATALGATLFYEEGHEGSWQLLKAAVSSRVIVEGLKLGVNKDRPDGSGDDSFPSGHTSDSFMAATFIQQRYGWQYGLPAYLAASYVGYTRVESDKHYVEDVLAGAAIGMLAGWYFTEPYKGITVTPLAHNGVYGLYISGQF,failed
8,MKKKLVIILSIICIIAGGYFTMEYLKHKEKEEFFWKTQETRVEKYIHYNVKDVKSITFIEHKISPMGIPSIEGYINDDKDLWFDASISTTENFEDKFSRSGELGKLIKDPEKSVSEIEKEEKEKKKELEHHHHHH,not failed
9,MKKKMITALGVSAIILTNFVGSTYADSKIGVSVTAPYNKNQIAEWLEMHAKPLKTTNPNAPFNDLKPFKNMVGSASIVGLGEATHGAHEVFTMKNRIVNYLVSEKGFTNLVLEEGWDRALELDRYVLTGEGNPSQHLSPVFKTKEMLDLLNWIRQYNANPKHKSKVRIIGMDIQSVNENVYNNIIEYVKRTNSKLVPRIEEKIKGLIPVTKDMNTFESLTKEEKEKYISDAKQISAVLEENKSYLNGKSKEFAWIKQNARIIEQFTTMLTSPPDKPSDLFLKHDIAMYENAKWTEEHLGKTIVWGHNGHVSKTNMLPFVYPKVAGQYLAEYYGKRYVSIGTSVYEGQYNVKNSDGEFGPYGILKSDDPNSYNYIFGQVKKDQFFIDLRKANGVTKNWLNEQHPIFAGVTTEGPGIPKTVDISLGKAFDILVQIQKVSPSQLHQLEHHHHHH,failed
10,MKKLAIAISTILLSGAAYAGNTADVELFNADDNDVNIFQMSPAVGNDADVLIRNSDENEVDIYQMGRHNDAVVRVRNGSDDNDLMIDQDGRHNRAVLKARLGSDENDFAIEQDGRLNLGKVIADDSDNNNGLIDQRGRRNEAYINFDSASDNSNNKIVQRGRRNEGEISVMGGSNNGTLKIRQKGHDNDSKIHVYGGSGNEALTKINGDDNTTYTAFYAGASDNDTTILMKNDSLDNTVYAVVVGGSFNEADVTIDSSNDNFVSVAQWGDSSMAEVTLENGSNDNWIMINQTNNDMATVTADNSSYNAVVITQL,failed
11,MKKLIVDLDGTLTQANTSDYRNVLPRLDVIEQLREYHQLGFEIVISTARNMRTYEGNVGKINIHTLPIITEWLDKHQVPYDEILVGKPWCGHDGFYIDDRAVRPSEFASMNLEEIHQLFEKEKSCS,not failed
12,MKKLKRAYKMEINPTDEQKSKIHQTIGVSRFIYNFYIARNKEIYEKEGKFVSGMDFSKWLNNEYIPNNQEMKWIKEVSSKATKQAIMNGDKSFRDFFKKAKGFPRFKKKKNQDVKAYFPKNNKTDWTIERHRVKIPTLGWVRLKEFGYIPTNSIVKSGTVSQKADRYYVSILVEETDIKISNSNIGIKIFNHNNEGIGIDLGIKDFAICSNGNKFKNINKTSTIKKVEKNLKREQRKLSRKYESLKIRNKKEKGGNVTRQNIQKQIVKVQKLHQRLTNIRTDYINKIVSSIIKQKPSYITIEDLNVKGMMKNKHLSKAIASQKFFEFKTKLMSKCKQNDVELRIVDRFYPSSKTCSQCGEIKKDLKLSDRVYKCSCGLVIDRDLNASINLRNAKEYKIALEHHHHHH,not failed
13,MKKNYMKALVVATTLAIPFATYSTPALAALKVEANQSVAAASDRTYDTEIKIYKDQKDEPSMVSQYIKDPKVTIAAGKKIVTVTMQDSDYFQYLRIEDKNQPGVFHDVKVLSEDKRKNGTKVVQFEIGEFEKKHNMQMHILIPAIGYDHKYQVQFEIKDPTVGNKETEKPDDNSNSGNTETDNPVDNQNMITDNKLRELVNKKVFNRKDLNTPITKEDLLQVKDLFLNTNEILDYSALKYMPNLKSLTVANAKIKDPSFFANLKQLNHLALRGNEFADVTPLVKMDNLESLDLSNNKITNVAPLTEMKNVKSLFLSGNQIEDVTALAKMEQLDYLNLANNKITNVAPLSNLKNVTYLTLAGNQIEDIKPLYTLPLKDLVLTRNKVKDLSGIDQLNQLQELWIGKNEITDVTPLSKMTQLKILNLPNNELKDITPLSSLVNLQKLDLEANYISDLSPVSNLKKLVFLSFVANEIRDVRPVIELSKTAYINVQNQKVFLEETEVNKEVKVPIYEKDGEISTKIRLKSDNGTYSNGVVKWSTPGEKVYEFGVKDPFADTGIFFTGSVIQNVVESKDGNTSKEDEKTEVVEFKDVPKGHWSEEAINYLAKEKLFIGYGNGEFGFGDNITRGQVALLIQRYLKLENNLEQKTAFTDTKGNMYETAIDAVVQAGIMTGYGNGMFRPDGVLTRYEMSVVLQRVFQLKENENSAENFKDVPNGHWAKGYVKALVDNKISKGDGEGNFLGDNFVTREQYAQFLYNAIKK,failed
14,MKKPKFLSLQEDDTFEKMRQSRLQKNKRKRDSGLNVFEEVVKDLTYGYMKIGDGDEIYGKHRKKKRVSKAKELEMAMTLEALKKDQEKGDIVAKNHSWQAAISRAAGIKIHDDPKRLKKRIHKETKMREKNTEKWKERVDVQQKFRAEKQQKRSENVIDRIQQKKMRKIAKREKKLLRPGY,failed
15,MKKPVHDMRQHIIDVARSLMTNKGYTAVGLAEVLITAGVPKGSFYYYFKSKEEFGQALLEEYFSEYLGRVDALMARPGTGAERLLAYFMYWSETQGTDLPEGKCLVVKLGAEVCDLSEDMRCVLEVGTAKIIQRISACVEMGVSDGSIHPEGDHQGFAESLYQLWLGASLLVKVNKSTESFDKALNMTKRLLK,failed
16,MKKRAVLILSMMLAAQAAFYTSSNTASAAIGEAVIATDEINVRSGPGLSHEIVSVVSRNESYPILEERGDWVQIQLNGGQKGWVVSWLIKKKSQVSSGSDSASGKVTSSEANLRIRKGPGTSYEVQGVFPEGEQADLLKTDGKWIKISYQNITGWVYSDYVNQGSGAKQSQSSSSHASSSKSGTVGVSTLNVRSTASHQGRIIATLQRNASVTILNEQHGWYEIEFNGQKGWAASHYILEGNKQNSGTSETSSSSEAKRQATIVYEGTNVRSGPSTSSAIVKRTGKGESYPIVSTKGDWYEIKLSNGDSAYVASWVVQTVDQAGSAGDSKSAAPPLAKRSSSGGTIKNKTVVIDAGHGGHDSGTIGTRGTLEKRLTIKTATLLAAKLRADGVNVYMTRNDDSFVSLQSRVATSHYRNADAFISIHYDSFPNASVRGNTAYYYSPSKDRKLAADVQSEIERHSPLPSRGVLFGDYFVLRENKQPAALFELGYLSHPQEEAVVSTNAYRERVTDGIRSGLENYFD,failed
17,MKKRHLLIAGLACMTILGACNNDDAGSSGQAVVEVDGHEISDAEFVDMLKERYGEAILQELVQRHLISQAADSVEIPQEEIDEELETFKSQIGVETDDEMLDALSNQFGITVENKEEFVNEYILPPLVLEKLAVEGVEITDEEKQAYFDENRDSLIEVEASHILVEDEETAEEVLDRLEAGDDFAELASEYSVDPSAEANNGDLGFFGKGDMVPEFEEAAFNMEIDEVSEPVESTYGYHIILVTDRKDSYEELEEKIHDTLMRERSRTQEEVLRDLLAQADINVLDDQFEGLFDLPDAPPVEDTPEIDGEDASDEAEDQAEDADENAEEEDES,failed
18,MKKRILAVAVTSMLLSASVFAQETVVPSRVGDLKFESDFPTQETMKNMLNEMDFQRATQAYLWGIPASSIMEWLNVSRNDFKFEEGQMGFFNTLKQKQGIITANFTTPYVIGTWNLEKTGPLIINLPEAKMAGMMLDVHQRVLSDLSLLGPDKGKGGKYLIVPPGEKYKDLNPKGYYVIRPKTNVVYGGIRILEPDVDRVVKQVVPNITTQPYADGKLGRKIPVAQVPEIDWTHIPKDGLEYWKTIHQIIQENPVEERDRFVMAQLKFLGIEKGKPFNPTEEQKKILLEASKVGRAMAQSNDYTKRFTQPYWKGTNWKDAISVSLDQRSENYDELDERAAWFYEAITVSRGMKSTIPGFGQRYLVTYQDSDGNWLSGEHTYKLHVPANVPASNFWSTTVYDENNRLMIINDAGSPDISSRKNLKVNSDGSIDVYYGPKPVKGYENNWVQTNPGEGWFTYFRFYGPTEKMFDKSWTMGDIELVKLEHHHHHH,not failed
19,MKKRLLLFILVLGVCLFTSCGNFVKTNIYFSAAESAFDSGKYEDAIKYYDKVIEADSGNAMAYLGKGLALDALGKYEEALEFFDKAIEINKDLAKAYNAKGTTLASLERYEESLENFKKAAELKPKNSAYQNDVAYGLNNLGRFEEAIQYAEKALKLNPRSGVAYSNKGFALDALGKLDEAIECYDKAIELSPTYTNAYYNKSIAVFKMGKTEEAIELLDKVLEIDPDDLDAITSKGYCLNELGKYEKAIECFDTAIEKYPKDPYPYVCKATSLYYLGKYDNALEECNKAIKLEYTFPDSYIWKAKILVEKGDIEEARKSCDEFLAIAEDASVYDMKGQIYLHEYNYPEAIKLFDKAIEVDPSYEDSYINKIYCLYLQKNYKECIEFATKVQTIFPNSADIPWYIGDCYSIMMEPEKAIEYLKKAHELNPKDVGILTSIAWEYYSLEDYAKASEYAEKAAEISADDESVKYIREKLENQKLPEAEQIVEFVKNNYLYYDKIANFEALANEFKAKGEVGVKDICNFIESIRQKDDMFTFVIHGDDYDLLKYEESISQVTSQQLEPNIHYIKIKSFTASVSWEFKEIIDSIENPEEKVLVIDLRDNLGGLATSSADILDYLLPACTTSYIVYRDGYMYSYYSDAAQTKFKKILVLVNEYSASSSEILALGLKKHLNNVVIIGRPTVGKGVGQLVYENKSKKYMIYLVSFYWNVMEENILGKRIEPDVYVNSSSDAAYMNEVKRQAAR,failed
20,MKKRVQNKRFARTICDGNNPSQIATDLRDICEGEKTRRFSVANFARDNSLAILREICEELARTKKFLAKSLQIARDLQVQILFCGNFCDETYKDRDFAGWLKLYVTNGCENELLLLWLYEIVQEPRSKITTAKSFVVDVNANKTYAKFKPFILASQAFYLTRV,not failed
